The record followed here is patent publication US20170022269A1.

Test [1] has as its target Aβ(1-42) fibrils (human) (UniProt P05067). The experiment in a line: co-pelleting with Aβ(1-42) fibrils, SDS-PAGE, optical density of the heavy chain in pellet / (pellet + supernatant).
In test [2] the target is Aβ(20-42) globulomer (human). The experiment in a line: dot blot densitometry, antibody 0.2 µg/ml; column Aβ(20-42) globulomer (reference).
Sequence of Aβ(20-42) globulomer (human) (peptide, as listed by the source): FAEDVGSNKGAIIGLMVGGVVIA

Sequence of Aβ(1-42) fibrils (human) (P05067 672-713): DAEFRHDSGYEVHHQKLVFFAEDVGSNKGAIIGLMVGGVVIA

As for “commercially available antibody 6E10 (Signet, Cat. no. 9320)”, the antibody bound to fibrils [%] in test [1] is 98%. This substance yielded a relation between recognition of Aβ(20-42) globulomer and the respective Aβ form in test [2] of 1.
